What was measured:
[1] = biological target: IGF-II (insulin-like growth factor II) (UniProt P01344); assay: method not stated in the legend (presumably BIAcore)
[2] = biological target: IGF-I (insulin-like growth factor I) (UniProt P05019); assay: SPR (BIAcore), IGF-I amine-coupled to CM5 chip; ratio against hIGFBP-2
[3] = biological target: IGF-II (insulin-like growth factor II) (UniProt P01344); assay: SPR (BIAcore), IGF-II amine-coupled to CM5 chip, IGFBP-2 as analyte, Langmuir 1:1 fit
[4] = biological target: IGF-I (insulin-like growth factor I) (UniProt P05019); assay: method not stated in the legend (presumably BIAcore)
[5] = biological target: IGF-I (insulin-like growth factor I) (UniProt P05019); assay: SPR (BIAcore), IGF-I amine-coupled to CM5 chip, IGFBP-2 as analyte, Langmuir 1:1 fit
[6] = biological target: IGF-I (insulin-like growth factor I) (UniProt P05019); assay: SPR (BIAcore) on immobilised IGF-I; text summing up Table 2
[7] = biological target: IGF-II (insulin-like growth factor II) (UniProt P01344); assay: SPR (BIAcore) on immobilised IGF-II; text summing up Table 3
[8] = biological target: IGF-II (insulin-like growth factor II) (UniProt P01344); assay: SPR (BIAcore), IGF-II amine-coupled to CM5 chip; ratio against hIGFBP-2

Chain of IGF-I (insulin-like growth factor I) (P05019 49-118 limits assumed): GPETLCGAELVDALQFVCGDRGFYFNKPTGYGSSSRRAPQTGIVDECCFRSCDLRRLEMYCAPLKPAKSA
Chain of IGF-II (insulin-like growth factor II) (P01344 25-91 limits assumed): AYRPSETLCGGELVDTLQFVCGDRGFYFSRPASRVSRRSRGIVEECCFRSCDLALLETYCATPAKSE

| fold lower affinity (reference not named, presumably native IGFBP-2) [1] [fold] | Rel. KD (KD of hIGFBP-2/KD of hIGFBP-2 mutant) [2] | Kd [3] [nM] | koff [3] [s⁻¹] | kon [3] [M⁻¹ s⁻¹] | fold lower affinity (reference not named, presumably native IGFBP-2) [4] [fold] | Kd [5] [nM] | koff [5] [s⁻¹] | kon [5] [M⁻¹ s⁻¹] | fold decrease in affinity against native hIGFBP-2 [6] [fold] | fold decrease in affinity against native hIGFBP-2 [7] [fold] | Rel. KD (KD of hIGFBP-2/KD of hIGFBP-2 mutant) [8] | Substance |
| --- | --- | --- | --- | --- | --- | --- | --- | --- | --- | --- | --- | --- |
| 2 | – | – | – | – | – | – | – | – | – | – | – | Des (114-170) K180A K181A hIGFBP-2 (from UniProt P18065 36-113; P18065 207-325) |
| – | 0.26 | 1.14 | 0.00013 | 114000 | 2 | 3.63 | 0.000425 | 117000 | 5 | 2 | 0.51 | Des(114-170)His hIGFBP-2 (from UniProt P18065 36-113; P18065 207-325) |
